Where two headings read alike, the source gives them in different places.

In general, EC50 (read off the curve) refers to the concentration that produces a half-maximal response. As a reminder, the koff is the first-order rate constant of dissociation. As usually defined, the kon is the rate constant with which the complex forms. As usually defined, the IC50 is the concentration that inhibits the measured activity by half.

For assay [1], the target named is T1, hTfR1 (recombinant, construct not specified) (human, UniProt P02786 89-760, limits assumed).
T1 construct: also called biotinylated hTfR1
Briefly: ELISA on coated hTfR1, biotinylated scFv detected with streptavidin-HRP, after 48 h in mouse serum or PBS at 37°C or 4°C. The protocol:
After 48 h incubation, binding of the scFv to hTfR1 was evaluated by ELISA. […] The reaction was stopped by 1:1 addition of 0.5 M sulfuric acid (#35354-1L, Honeywell). Optical density at 450 nm was obtained using a microplate reader (Spark, Tecan) and the collected data was plotted using GraphPad Prism software (GraphPad Software Inc).
In general terms: An ELISA detects its analyte on a solid surface through an enzyme-linked reagent.

The target of assay [2] is T2, Aβ2-42 monomer (UniProt P05067 673-713).
T2 construct: range 2-42 (Aβ numbering)
As to the kind of experiment: ELISA: Aβ monomer captured on a polyclonal anti-Aβ42 coat, hybridoma supernatant diluted 1/243, anti-mouse IgG-HRP.

For assay [3], the target named is T3, Aβ1-42 monomer (UniProt P05067 672-713).
T3 construct: range 1-42 (Aβ numbering)
The assay is described as above.

Assay [4] deals with T4, AβpE11-28 monomer (UniProt P05067 682-699, pyroglutamate at position 11 (N-terminal residue)).
T4 construct: range 11-28 (Aβ numbering)
T4 peptide (looked up): EVHHQKLVFFAEDVGSNK
Briefly: SPR, antibody immobilised. The protocol: (§1) Single cycle kinetics with the antibodies immobilized on a CM5 chip was used to measure the binding of the antibodies to the different monomers (AβpE3-40, AβpE11-28, Aβ1-28, Aβ2-28, Aβ3-28 and Aβ4-28). For the measurements, 5 μg/ml of analyte antibody was immobilized on the chip. […] Regeneration of the surface between cycles was done by injecting 30 μl 3 M MgCl₂. The binding data was fitted to a 1:1 interaction model.
(§2) In all SPR experiments, 1×HBS-EP+ (Cytiva, cat. no. BR100669) was used as running buffer and to dilute antibodies and target antigens. Experiments were performed at 25° C.
For orientation: SPR reads the build-up and loss of mass on a sensor chip optically.

Assay [5] has as its target T5, Aβ2-28 monomer (UniProt P05067 673-699).
T5 construct: range 2-28 (Aβ numbering)
Briefly: SPR, antibody immobilised. The protocol: as §1, §2

The target in assay [6] is T6, AβpE3-40 monomer (UniProt P05067 674-711, pyroglutamate at position 3 (N-terminal residue)).
T6 construct: range 3-40 (Aβ numbering); Synthetic peptide (Bachem/Anaspec), verified monomeric by SEC; also called monomeric AβpE3-40
As to the kind of experiment: SPR, antibody immobilised, monomer injected, 1:1 fit. The procedure: as §1, §2

The target in assay [7] is T7, Aβ3-28 monomer (UniProt P05067 674-699).
T7 construct: range 3-28 (Aβ numbering)
The description is as above. The protocol: as §1, §2

Assay [8] has as its target T8, Aβ4-28 monomer (UniProt P05067 675-699).
T8 construct: range 4-28 (Aβ numbering)
The description is as above. The protocol: as §1, §2

The target of assay [9] is T9, AβpE3-42 protofibrils (UniProt P05067 674-713, pyroglutamate at position 3 (N-terminal residue)).
T9 construct: range 3-42 (Aβ numbering); Soluble aggregates made from AβpE3-42 peptide, purified in the void peak of SEC; also called AβpE3-42 PF
Briefly: SPR, protofibrils immobilised, antibody injected, 1:1 fit, apparent; binding to AβpE3-42 protofibrils (not monomer); KD in pM. The procedure:
(§3) Single cycle kinetics was also used to measure binding of the antibodies to AβpE3-42 protofibrils. […] For binding to AβpE3-42 protofibrils, the antibodies were injected over the chip using a 3-fold dilution series in five steps starting at 700 nM, using 2 min injection of every antibody concentration and a 60 min dissociation time. Regeneration of the surface between cycles was done by injecting 30 μl 10 mM glycine-HCl pH 1.7. The binding data was fitted to a 1:1 interaction model.
as §2

Assay [10] addresses T9, AβpE3-42 protofibrils. As to the kind of experiment: inhibition ELISA, antigen titrated in solution, AβpE3-40 coat. The procedure: (§4) For binding to Aβ1-40 and AβpE11-40, the positive control 4G8 (Covance #SIG-39320, epitope: amino acids 17-24 of Aβ) was included. The recombinant antibodies were incubated at a fixed concentration (0.05 μg/ml) with titrating concentrations of the different Aβ antigens. After incubation for 45 min at 900 rpm to reach equilibrium, the antibody-Aβ samples were added to a blocked and washed ELISA plate with an AβpE3-40 coat (0.5 μM). The samples were incubated on the plate for 25 min without shaking followed by washing, incubation with detection antibody, another washing step and finally incubation with alkaline phosphatase substrate.

In assay [11] the target is T6, AβpE3-40 monomer. The assay is described as above. The procedure: as §4
Assay [12] addresses T10, AβpE11-40 monomer (UniProt P05067 682-711, pyroglutamate at position 11 (N-terminal residue)).
T10 construct: range 11-40 (Aβ numbering)
T10 peptide (looked up): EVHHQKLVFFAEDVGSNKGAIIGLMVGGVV
Described as above. The procedure: as §4

The target of assay [13] is T11, Aβ1-40 monomer (UniProt P05067 672-711).
T11 construct: range 1-40 (Aβ numbering)
The assay is described as above. The protocol: as §4

In assay [14] the target is T12, Aβ1-28 monomer (UniProt P05067 672-699).
T12 construct: range 1-28 (Aβ numbering)
Briefly: SPR, antibody immobilised. The procedure: Affinity and specificity evaluation and KD determination by surface plasmon resonance: Binding interactions between antigens and antibodies were evaluated by SPR using a Biacore 8K instrument (Cytiva) according to standard procedures. […] Additionally, the specificity towards different N-truncated forms of Aβ (Aβ2-28, Aβ3-28, Aβ4-28 and AβpE11-28 monomers) was evaluated.
as §1, §2

Assay [15] addresses T9, AβpE3-42 protofibrils. As to the kind of experiment: SPR, protofibrils immobilised, antibody injected, 1:1 fit, apparent. The procedure:
as §3, §2

Assay [16] concerns the target T13, truncated hTfR1 of SEQ ID NO:122 (human, UniProt P02786 122-760).
T13 construct: also called human TfR1; Human TfR1
As to the kind of experiment: SPR, TfR1 amine-coupled, Fab injected, 1:1 fit. The protocol: (§5) Binding of the purified Fabs to human and cynomolgus TfR1 was evaluated using either SPR (FIG. 44) or indirect ELISA (FIG. 45). For SPR, a Biacore 8K instrument (Cytiva) was used. […] The Fabs were injected over the chip using a 2-fold dilution series in four steps starting at 100 nM. The interaction was measured using the single cycle kinetics method with a contact time of 120 s at a flow rate of 30 μl/min followed by a dissociation time of 1000 s. Regeneration of the surface between cycles was done by injecting 3M MgCl₂. The binding data was fitted to a 1:1 interaction model. The Fabs were diluted in HBS-EP+ (Cytiva, #BR100669). Experiments were performed at 25° C.

Assay [17] has as its target T14, truncated cTfR1 of SEQ ID NO:123 (cynomolgus monkey, UniProt Q5RDH6 122-760 (Pongo abelii entry)).
T14 construct: also called cynomolgus TfR1
T14 chain: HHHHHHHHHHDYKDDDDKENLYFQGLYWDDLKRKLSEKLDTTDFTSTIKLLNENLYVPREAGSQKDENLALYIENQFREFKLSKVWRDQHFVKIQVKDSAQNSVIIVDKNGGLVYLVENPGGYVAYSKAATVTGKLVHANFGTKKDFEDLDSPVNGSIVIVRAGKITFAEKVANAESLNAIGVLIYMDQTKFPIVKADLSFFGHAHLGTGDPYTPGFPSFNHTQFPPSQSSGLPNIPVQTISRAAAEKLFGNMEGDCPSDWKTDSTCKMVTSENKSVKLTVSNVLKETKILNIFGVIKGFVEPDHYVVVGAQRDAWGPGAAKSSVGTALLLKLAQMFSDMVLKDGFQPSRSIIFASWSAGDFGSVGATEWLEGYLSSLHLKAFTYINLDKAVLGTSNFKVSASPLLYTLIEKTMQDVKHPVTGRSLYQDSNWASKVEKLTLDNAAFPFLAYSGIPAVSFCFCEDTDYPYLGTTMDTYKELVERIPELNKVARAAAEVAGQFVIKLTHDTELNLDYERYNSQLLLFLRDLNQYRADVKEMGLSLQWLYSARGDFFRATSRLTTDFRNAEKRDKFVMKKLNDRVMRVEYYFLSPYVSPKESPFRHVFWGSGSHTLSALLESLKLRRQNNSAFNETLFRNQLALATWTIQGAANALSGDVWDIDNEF
Briefly: SPR, TfR1 amine-coupled, Fab injected, 1:1 fit. The protocol: as §5

Assay [18] addresses T13, truncated hTfR1 of SEQ ID NO:122. As to the kind of experiment: SPR, TfR1 amine-coupled, Fab injected, 1:1 fit. The protocol:
(§6) The interaction was measured using the single cycle kinetics method with a contact time of 120 s at a flow rate of […] followed by a dissociation time of 600 s. Regeneration of the surface between cycles was done by injecting 3M MgCl₂. The binding data were fitted to a 1:1 interaction model. The Fabs were diluted in HBS-EP+ (Cytiva, #BR100669). Experiments were performed at 25° C.
The source holds these as a separate data set.

In assay [19] the target is T14, truncated cTfR1 of SEQ ID NO:123. Briefly: SPR, TfR1 amine-coupled, Fab injected, 1:1 fit. The protocol:
as §6

Assay [20] addresses T15, ectodomain of human TfR1 (His10-hTfR1; SEQ ID NO:110) (human, UniProt P02786 89-760).
T15 construct: also called ectodomain of hTfR1
As to the kind of experiment: indirect ELISA: plate coated with 1 µg/ml hTfR1 ectodomain, Fab in 1:3 serial dilution, anti-human IgG F(ab')2-HRP. The procedure:
For the indirect ELISA, half area 96-well plates (Corning, #3690) were coated with 1 μg/ml recombinant ectodomain of hTfR1 (SEQ ID NO:110) in PBS overnight at 4° C. The coated plates were blocked using Pierce protein-free blocking solution (Thermo Fisher Scientific, #37572) for 1 h at room temperature with shaking and washed four times in PBS containing 0.1% TWEEN-20. Serial dilutions (1:3) of various expressed constructs in incubation buffer (1% BSA, 0.1% TWEEN-20 in PBS) were incubated for 1 h at room temperature. […] Following four wash steps, K-Blue® Aqueous TMB substrate (Neogen, #331177) was added to the wells for 15 min at room temperature before the reaction was stopped with 1:1 dilution of 0.5 M H₂SO₄. The optical density at 450 nm was recorded (Spark, Tecan) and background signal was subtracted before analysis.

T8 sequence (P05067 675-699): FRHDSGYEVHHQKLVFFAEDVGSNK
T7 sequence (P05067 674-699): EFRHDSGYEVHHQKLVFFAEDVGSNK
T9 sequence (P05067 674-713): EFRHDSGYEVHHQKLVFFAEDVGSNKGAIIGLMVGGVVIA
T2 sequence (P05067 673-713): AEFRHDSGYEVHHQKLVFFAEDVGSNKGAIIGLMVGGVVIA
T5 sequence (P05067 673-699): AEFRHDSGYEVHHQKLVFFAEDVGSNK
T12 sequence (P05067 672-699): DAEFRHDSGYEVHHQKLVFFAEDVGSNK
T3 sequence (P05067 672-713): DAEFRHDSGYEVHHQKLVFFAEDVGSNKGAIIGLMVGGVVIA

B1: h26D3wt_DS, VL-first (His6 and Avi tags, biotinylated) (scFv)
scFv: DIQMTQSPSSVSASVGDRVTITCKSSQSLLYSTNQKNYLAWYQQKPGKAPKLLIYWASTRESGVPSRFSGSGSGTDFTLTISSLQPEDFATYYCQQYFIYPRTFGCGTKVEIKGGGGSGGGGSGGGGSGGGGSEVQLVQSGAEVKKPGSSVKVSCKASGYIFTDYNMDWVRQAPGQCLEWIGDINPDYDTTSYNEKFKGRATLTVDKSTSTAYMELSSLRSEDTAVYYCARGGYSGSSYYHPMDYWGQGTLVTVSS
modifications: biotin on the Avi tag (site directed in vivo biotinylation)
Consider B1, for which the “EC50 (read off the curve)” value in [1] was around 0.02 µg/mL.

B2: Pyr12.2 (antibody, V domains shown)
VH: EVQLQQSGPELVKPGTSIKMSCKASGYSFTGFTMNWVKQSHGKNLEWIGLINPYNGVTTYNQKFKGKATITVDKSSRTAYMELLSLTYEDSAVYYCTREGNWEGVYWGQGTPVTVSA
VL: EVVLTQTPLTLSVTIGQSASISCKSSQSLLDSNGKTYLHWFLLRPGQSPKRLIYLVSILDSGVPDRFTGSGSGTDFTLKISRVEAEDLGIYYCVQGTHFPFTFGSGTKLEIKR
notes: Murine anti-AβpE3 antibody; also called recombinant antibody Pyr12.2; hybridoma clone Pyr12.2
Regarding B2, the binding result in [2] is given as “no binding”; in [3], “no binding”; in [4] it was “no binding (tested: 2500 nM)”; in assay [5] it was “no binding (tested: 2500 nM)”; in assay [14], “no binding (tested: 2500 nM)”. Besides, the Kd came to 0.57 nM in [6], 42.6 nM in assay [7], 6760 nM in assay [8] and 0.0536 nM in assay [9]. Also, the koff in assay [6] is 4.12e-05 s⁻¹; in assay [7], 5.77e-05 s⁻¹; in assay [8], 0.481 s⁻¹; in assay [15], 3.31e-06 s⁻¹. Besides, the kon was 71800 M⁻¹ s⁻¹ in assay [6], 1750 M⁻¹ s⁻¹ in assay [7], 78200 M⁻¹ s⁻¹ in [8] and 63100 M⁻¹ s⁻¹ in assay [15]. For the same molecule, the concentration for half-maximal inhibition (IC50) in assay [10] was 8.43 nM; in assay [11], 1.52 nM; in [12], above 5000 nM; in [13], above 5000 nM.

B3: h26D3-Fab (Fab, V domains shown)
VH: EVQLVQSGAEVKKPGSSVKVSCKASGYIFTDYNMDWVRQAPGQGLEWIGDINPDYDTTSYNEKFKGRATLTVDKSTSTAYMELSSLRSEDTAVYYCARGGYSGSSYYHPMDYWGQGTLVTVSS
VL: DIQMTQSPSSVSASVGDRVTITCKSSQSLLYSTNQKNYLAWYQQKPGKAPKLLIYWASTRESGVPSRFSGSGSGTDFTLTISSLQPEDFATYYCQQYFIYPRTFGQGTKVEIK
notes: His-tagged Fab from ExpiCHO; also called humanized 26D3 Fab
Turning to B3, the Kd was determined as 10 nM in assay [16], 12 nM in [17], 3.2 nM in assay [18] and 5.8 nM in assay [19]. The molecule further returned a koff in assay [18] of 0.0045 s⁻¹. The on-rate constant (kon) in assay [18] came to 1.2e+06 M⁻¹ s⁻¹. The 50% effective concentration (EC50 (read off the curve)) in assay [20] was around 0.3 nM.

The values above are taken from US20250388664A1 (BIOARCTIC, published 2025).
